{"source": "patent US20120316071A1", "about": "(published 2012)", "binders": {"B1": {"name": "Fab VH5-51_IGHD5-18*01>3_IGHJ4*01 G100K/G104T (H:KT) & V3-4_IGLJ1*01 L24A (Fab, V domains shown)", "VH": "EVQLVQSGAEVKKPGESLKISCKGSGYSFTSYWIGWVRQMPGKGLEWMGIIYPGDSDTRYSPSFQGQVTISADKSISTAYLQWSSLKASDTAMYYCARRKYSYTYDYFDYWGQGTLVTVSS", "VL": "QTVVTQEPSFSVSPGGTVTLTCGASSGSVSTSYYPSWYQQTPGQAPRTLIYSTNTRSSGVPDRFSGSILGNKAALTITGAQADDESDYYCVLYMGSGISYVFGTGTKVTVL", "notes": "Fab expressed in E. coli; Plasmid A adds CH1 with His6 and Flag tags to the heavy chain; Plasmid E adds lambda CL to the light chain; also called G100K/G104T & L24A"}, "B2": {"name": "Fab VH5-51_IGHD5-18*01>3_IGHJ4*01 G100K/G104T (H:KT) & V3-4_IGLJ1*01 S32A (Fab, V domains shown)", "VH": "EVQLVQSGAEVKKPGESLKISCKGSGYSFTSYWIGWVRQMPGKGLEWMGIIYPGDSDTRYSPSFQGQVTISADKSISTAYLQWSSLKASDTAMYYCARRKYSYTYDYFDYWGQGTLVTVSS", "VL": "QTVVTQEPSFSVSPGGTVTLTCGLSSGSVSTAYYPSWYQQTPGQAPRTLIYSTNTRSSGVPDRFSGSILGNKAALTITGAQADDESDYYCVLYMGSGISYVFGTGTKVTVL", "notes": "Fab expressed in E. coli; Plasmid A adds CH1 with His6 and Flag tags to the heavy chain; Plasmid E adds lambda CL to the light chain; also called G100K/G104T & S32A"}, "B3": {"name": "Fab VH5-51_IGHD5-18*01>3_IGHJ4*01 G100K/G104T (H:KT) & V3-4_IGLJ1*01 S36A (Fab, V domains shown)", "VH": "EVQLVQSGAEVKKPGESLKISCKGSGYSFTSYWIGWVRQMPGKGLEWMGIIYPGDSDTRYSPSFQGQVTISADKSISTAYLQWSSLKASDTAMYYCARRKYSYTYDYFDYWGQGTLVTVSS", "VL": "QTVVTQEPSFSVSPGGTVTLTCGLSSGSVSTSYYPAWYQQTPGQAPRTLIYSTNTRSSGVPDRFSGSILGNKAALTITGAQADDESDYYCVLYMGSGISYVFGTGTKVTVL", "notes": "Fab expressed in E. coli; Plasmid A adds CH1 with His6 and Flag tags to the heavy chain; Plasmid E adds lambda CL to the light chain; also called G100K/G104T & S36A"}, "B4": {"name": "Fab VH5-51_IGHD5-18*01>3_IGHJ4*01 G100K/G104T (H:KT) & V3-4_IGLJ1*01 P35A (Fab, V domains shown)", "VH": "EVQLVQSGAEVKKPGESLKISCKGSGYSFTSYWIGWVRQMPGKGLEWMGIIYPGDSDTRYSPSFQGQVTISADKSISTAYLQWSSLKASDTAMYYCARRKYSYTYDYFDYWGQGTLVTVSS", "VL": "QTVVTQEPSFSVSPGGTVTLTCGLSSGSVSTSYYASWYQQTPGQAPRTLIYSTNTRSSGVPDRFSGSILGNKAALTITGAQADDESDYYCVLYMGSGISYVFGTGTKVTVL", "notes": "Fab expressed in E. coli; Plasmid A adds CH1 with His6 and Flag tags to the heavy chain; Plasmid E adds lambda CL to the light chain; also called G100K/G104T & P35A"}, "B5": {"name": "Fab VH5-51_IGHD5-18*01>3_IGHJ4*01 G100K/G104T (H:KT) & V3-4_IGLJ1*01 T31A (Fab, V domains shown)", "VH": "EVQLVQSGAEVKKPGESLKISCKGSGYSFTSYWIGWVRQMPGKGLEWMGIIYPGDSDTRYSPSFQGQVTISADKSISTAYLQWSSLKASDTAMYYCARRKYSYTYDYFDYWGQGTLVTVSS", "VL": "QTVVTQEPSFSVSPGGTVTLTCGLSSGSVSASYYPSWYQQTPGQAPRTLIYSTNTRSSGVPDRFSGSILGNKAALTITGAQADDESDYYCVLYMGSGISYVFGTGTKVTVL", "notes": "Fab expressed in E. coli; Plasmid A adds CH1 with His6 and Flag tags to the heavy chain; Plasmid E adds lambda CL to the light chain; also called G100K/G104T & T31A"}, "B6": {"name": "Fab VH5-51_IGHD5-18*01>3_IGHJ4*01 G100K/G104T (H:KT) & V3-4_IGLJ1*01 S28A (Fab, V domains shown)", "VH": "EVQLVQSGAEVKKPGESLKISCKGSGYSFTSYWIGWVRQMPGKGLEWMGIIYPGDSDTRYSPSFQGQVTISADKSISTAYLQWSSLKASDTAMYYCARRKYSYTYDYFDYWGQGTLVTVSS", "VL": "QTVVTQEPSFSVSPGGTVTLTCGLSSGAVSTSYYPSWYQQTPGQAPRTLIYSTNTRSSGVPDRFSGSILGNKAALTITGAQADDESDYYCVLYMGSGISYVFGTGTKVTVL", "notes": "Fab expressed in E. coli; Plasmid A adds CH1 with His6 and Flag tags to the heavy chain; Plasmid E adds lambda CL to the light chain; also called G100K/G104T & S28A (light chain)"}, "B7": {"name": "Fab VH5-51_IGHD5-18*01>3_IGHJ4*01 G100K/G104T (H:KT) & V3-4_IGLJ1*01 S30A (Fab, V domains shown)", "VH": "EVQLVQSGAEVKKPGESLKISCKGSGYSFTSYWIGWVRQMPGKGLEWMGIIYPGDSDTRYSPSFQGQVTISADKSISTAYLQWSSLKASDTAMYYCARRKYSYTYDYFDYWGQGTLVTVSS", "VL": "QTVVTQEPSFSVSPGGTVTLTCGLSSGSVATSYYPSWYQQTPGQAPRTLIYSTNTRSSGVPDRFSGSILGNKAALTITGAQADDESDYYCVLYMGSGISYVFGTGTKVTVL", "notes": "Fab expressed in E. coli; Plasmid A adds CH1 with His6 and Flag tags to the heavy chain; Plasmid E adds lambda CL to the light chain; also called G100K/G104T & S30A"}, "B8": {"name": "Fab VH5-51_IGHD5-18*01>3_IGHJ4*01 G100K/G104T (H:KT) & V3-4_IGLJ1*01 S25A (Fab, V domains shown)", "VH": "EVQLVQSGAEVKKPGESLKISCKGSGYSFTSYWIGWVRQMPGKGLEWMGIIYPGDSDTRYSPSFQGQVTISADKSISTAYLQWSSLKASDTAMYYCARRKYSYTYDYFDYWGQGTLVTVSS", "VL": "QTVVTQEPSFSVSPGGTVTLTCGLASGSVSTSYYPSWYQQTPGQAPRTLIYSTNTRSSGVPDRFSGSILGNKAALTITGAQADDESDYYCVLYMGSGISYVFGTGTKVTVL", "notes": "Fab expressed in E. coli; Plasmid A adds CH1 with His6 and Flag tags to the heavy chain; Plasmid E adds lambda CL to the light chain; also called G100K/G104T & S25A"}, "B9": {"name": "Fab VH5-51_IGHD5-18*01>3_IGHJ4*01 G100K/G104T (H:KT) & V3-4_IGLJ1*01 Y34A (Fab, V domains shown)", "VH": "EVQLVQSGAEVKKPGESLKISCKGSGYSFTSYWIGWVRQMPGKGLEWMGIIYPGDSDTRYSPSFQGQVTISADKSISTAYLQWSSLKASDTAMYYCARRKYSYTYDYFDYWGQGTLVTVSS", "VL": "QTVVTQEPSFSVSPGGTVTLTCGLSSGSVSTSYAPSWYQQTPGQAPRTLIYSTNTRSSGVPDRFSGSILGNKAALTITGAQADDESDYYCVLYMGSGISYVFGTGTKVTVL", "notes": "Fab expressed in E. coli; Plasmid A adds CH1 with His6 and Flag tags to the heavy chain; Plasmid E adds lambda CL to the light chain; also called G100K/G104T & Y34A"}, "B10": {"name": "Fab VH5-51_IGHD5-18*01>3_IGHJ4*01 G104T & V3-4_IGLJ1*01 (wildtype) (Fab, V domains shown)", "VH": "EVQLVQSGAEVKKPGESLKISCKGSGYSFTSYWIGWVRQMPGKGLEWMGIIYPGDSDTRYSPSFQGQVTISADKSISTAYLQWSSLKASDTAMYYCARRGYSYTYDYFDYWGQGTLVTVSS", "VL": "QTVVTQEPSFSVSPGGTVTLTCGLSSGSVSTSYYPSWYQQTPGQAPRTLIYSTNTRSSGVPDRFSGSILGNKAALTITGAQADDESDYYCVLYMGSGISYVFGTGTKVTVL", "notes": "Fab; Expressed in E. coli with CH1 (plasmid A, His6 and Flag tags) and lambda CL (plasmid E); also called G104T & Wildtype"}}, "key": {"[1]": {"biological_target": "T1, Recombinant Human DLL4 (R&D Systems Cat#1506-D4/CF) (human, UniProt Q9NR61 27-524)", "T1 construct": "Bought recombinant protein; also called delta-like protein 4; Delta-like 4", "test": "ECL (Meso Scale Discovery) multispot binding assay, DLL4 immobilised, Fab at 100 nM"}, "[2]": {"biological_target": "T2, Recombinant Human DLL4 (delta-like protein 4) (human, UniProt Q9NR61 27-524)", "T2 construct": "Bought recombinant human DLL4 coated on the ELISA plate; also called rHuman DLL4", "test": "ELISA, DLL4 coated on plate, Fab at 50 nM (2-fold dilution series), absorbance at 450 nm"}, "[3]": {"biological_target": "T2, Recombinant Human DLL4 (delta-like …)", "test": "ELISA, DLL4 coated on plate, Fab at 25 nM (2-fold dilution series), absorbance at 450 nm"}, "[4]": {"biological_target": "T2, Recombinant Human DLL4 (delta-like …)", "test": "ELISA, DLL4 coated on plate, Fab at 100 nM (2-fold dilution series), absorbance at 450 nm"}, "[5]": {"biological_target": "T2, Recombinant Human DLL4 (delta-like …)", "test": "ELISA, DLL4 coated on plate, Fab at 12.5 nM (2-fold dilution series), absorbance at 450 nm"}}}
{"binder": "B1", "values": [{"measurement": "ECL signal", "setting": "[1]", "value": 9630}]}
{"binder": "B2", "values": [{"measurement": "ECL signal", "setting": "[1]", "value": 10400}]}
{"binder": "B3", "values": [{"measurement": "ECL signal", "setting": "[1]", "value": 9690}]}
{"binder": "B4", "values": [{"measurement": "ECL signal", "setting": "[1]", "value": 8260}]}
{"binder": "B5", "values": [{"measurement": "ECL signal", "setting": "[1]", "value": 13500}]}
{"binder": "B6", "values": [{"measurement": "ECL signal", "setting": "[1]", "value": 11500}]}
{"binder": "B7", "values": [{"measurement": "ECL signal", "setting": "[1]", "value": 10300}]}
{"binder": "B8", "values": [{"measurement": "ECL signal", "setting": "[1]", "value": 10200}]}
{"binder": "B9", "values": [{"measurement": "ECL signal", "setting": "[1]", "value": 2200}]}
{"binder": "B10", "values": [{"measurement": "ELISA signal", "setting": "[2]", "value": 0.17}, {"measurement": "ELISA signal", "setting": "[3]", "value": 0.18}, {"measurement": "ELISA signal", "setting": "[4]", "value": 0.17}, {"measurement": "ELISA signal", "setting": "[5]", "value": 0.19}]}
